Laboratory results taken from patent publication US20240376225A1 (CHILDREN S MEDICAL CENTER, published 2024).

Target: T1, human CD21 protein (human, UniProt P20023 21-971, limits assumed)
T1 construct: the Biacore set-up is not described; also called huCD21; CR2
T1 sequence (looked up): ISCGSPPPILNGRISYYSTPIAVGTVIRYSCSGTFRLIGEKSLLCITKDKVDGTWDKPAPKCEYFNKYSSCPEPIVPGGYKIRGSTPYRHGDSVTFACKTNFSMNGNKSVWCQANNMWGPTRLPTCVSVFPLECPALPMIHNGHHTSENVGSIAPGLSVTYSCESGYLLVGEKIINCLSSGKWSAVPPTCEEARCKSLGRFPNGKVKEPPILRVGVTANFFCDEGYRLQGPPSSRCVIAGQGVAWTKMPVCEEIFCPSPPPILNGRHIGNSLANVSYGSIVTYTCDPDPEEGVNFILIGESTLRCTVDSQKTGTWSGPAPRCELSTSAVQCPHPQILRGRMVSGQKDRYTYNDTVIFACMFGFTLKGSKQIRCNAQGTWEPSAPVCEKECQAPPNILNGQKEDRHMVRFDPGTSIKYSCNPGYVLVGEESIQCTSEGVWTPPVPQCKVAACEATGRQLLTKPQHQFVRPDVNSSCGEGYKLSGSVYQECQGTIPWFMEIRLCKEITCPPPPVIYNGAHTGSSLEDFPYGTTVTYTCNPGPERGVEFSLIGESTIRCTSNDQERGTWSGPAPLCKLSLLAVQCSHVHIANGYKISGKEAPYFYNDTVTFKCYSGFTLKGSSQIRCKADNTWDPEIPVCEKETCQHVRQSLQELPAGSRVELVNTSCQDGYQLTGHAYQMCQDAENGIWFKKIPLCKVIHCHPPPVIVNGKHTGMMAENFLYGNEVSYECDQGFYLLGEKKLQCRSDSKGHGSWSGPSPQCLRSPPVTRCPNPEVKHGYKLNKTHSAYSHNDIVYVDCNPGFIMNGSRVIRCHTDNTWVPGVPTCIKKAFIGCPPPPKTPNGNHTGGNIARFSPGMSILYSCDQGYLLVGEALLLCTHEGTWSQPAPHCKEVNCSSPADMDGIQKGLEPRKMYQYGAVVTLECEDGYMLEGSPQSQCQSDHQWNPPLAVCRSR
Experiment: SPR (Biacore)

B1: Ab15 (antibody, human IgG1, kappa, V domains shown)
VH: QVQLVQSGAEVKKPGSSVKVSCKASGGTFSSYAISWVRQAPGQGLEWMGRIIPILGIANYAQKFQGRVTITADKSTSTAYMELSSLRSEDTAVYYCAREDDSSGYYQDWGQGTLVTVSS
VL: EIVMTQSPATLSLSPGESATLSCRAGQSINSHLAWYQQKPGQSPSLLIYDASTRATGVPARFSGSGFGTEFTLTISSLQSEDFAVYFCQQYEYWYTFGQGTKLEIKR
notes: Tb-labeled in the HTRF assay; also called 36C01; SC38-36C01 (IgG1 version)
For B1, the Kd was 15.6 nM.
